Values quoted from earlier work in article PMC3589424.

Target: CD47 (Homo sapiens) (UniProt Q08722)
UniProt Q08722, sequence (Q08722 19-323): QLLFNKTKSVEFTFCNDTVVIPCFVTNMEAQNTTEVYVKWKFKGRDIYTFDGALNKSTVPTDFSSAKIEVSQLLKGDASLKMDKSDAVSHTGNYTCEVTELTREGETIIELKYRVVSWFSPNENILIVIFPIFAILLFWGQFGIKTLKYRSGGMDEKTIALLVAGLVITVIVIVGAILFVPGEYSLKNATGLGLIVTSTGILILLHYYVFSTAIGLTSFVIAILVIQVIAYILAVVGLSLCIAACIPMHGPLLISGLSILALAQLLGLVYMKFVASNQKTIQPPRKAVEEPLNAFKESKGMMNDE

**Q.** With SIRPα (from UniProt P78324) as the substance, how does the Kd read?
**A.** 2000 nM
